In US20120165265A1, “Calcium Signaling Modulators Involving STIM and ORAI Proteins” (priority 2009, published 2012):

What was measured:
Orai1 [1] = biological target: T1, Orai1 (Homo sapiens, UniProt Q96D31); assay: Whole-cell patch clamp recording of ICRAC in transfected HEK 293 cells; format: cell-based; parameters: expressed in transfected cells; host or cells: HEK 293; details: compared with native ICRAC
Protocol: (§1) Electrophysiology. HEK 293 cells were transfected 8-24 h prior to electrophysiology experiments with STIM1- and Orai1-derived constructs in a 1:1 mass ratio using Lipofectamine 2000. […] ICRAC in cells cultured without LaCl3 was similar to that in cells cultured with LaCl3, but most cells without LaCl3 died soon after break-in.
(§2) Currents were recorded using standard whole-cell patch clamp techniques (Prakriya and Lewis, 2001). Pipettes of resistance 2-5 MΩ were filled with an internal solution containing (in mM) 150 Cs aspartate, 8 MgCl2, 10 EGTA, and 10 HEPES (pH 7.2 with CsOH). Currents were sampled at 5 kHz and filtered at 2 kHz, and all voltages were corrected for the junction potential of the pipette solution relative to Ringer's in the bath (−13 mV).
(§3) Patch-clamp Experiments. Pipette-membrane seals were formed in 2 mM Ca^2+ Ringer's solution. After break-in to the whole-cell configuration, voltage stimuli consisting of a 100-ms step to −100 mV followed by a 100-ms ramp from −100 to +100 mV were delivered every 5 s from the holding potential of +30 mV. After the currents reached a steady level (˜300 s for wild-type STIM1), the external solution was changed via a multibarrel local perfusion pipette to a high-Ca^2+ Ringer's containing (in mM) 130 NaCl, 4.5 KCl, 20 CaCl2, 1 MgCl2, 10 D-glucose, and 5 HEPES (pH 7.4 with NaOH). All data were leak-corrected using the current elicited in 20 mM Ca^2+ Ringer's+10 μM LaCl3 at the end of the each experiment. LaCl3 and 2-APB were added directly to parent solutions on the day of the experiment from 10 mM and 100 mM stocks in H2O and DMSO, respectively.
As a definitive test for CRAC channel activation, we conducted whole-cell patch clamp recordings from HEK 293 cells transiently transfected with myc-Orai1 and either YFP-STIM1 or YFP-CAD. In cells expressing full length YFP-STIM1, ICRAC appeared over several minutes following break-in, consistent with the typical slow activation seen in response to passive store depletion (FIG. 2D). […] In contrast, inward current was present from the moment of break-in in cells expressing YFP-CAD (FIG. 2E). This current was identified as ICRAC based on its dependence on extracellular Ca^2+, inward rectification, sequential enhancement and inhibition by 2-APB, and inhibition by La^3+ (FIG. 2E and FIG. 10 C, D). ICRAC was not observed at break-in in HEK 293 cells transfected with YFP or YFP-CAD in the absence of Orai1 (FIG. 2F), consistent with the low level of endogenous STIM1 and Orai1 in these cells. […] Inactivation was restored by addition of STIM1 residues carboxy-terminal to CAD.

Orai1 [2] = biological target: T1, Orai1; assay: Co-immunoprecipitation with Orai1 in HEK 293T cells; format: binding; parameters: expressed in transfected cells; host or cells: HEK 293; details: 150 mM salt, 1% Triton X-100
Protocol: Immunoprecipitation and Immunoblot Analysis. Transfected HEK 293T cells (12-24 h) were washed with PBS and lysed in 50 mM Tris-HCl pH 7.5, 150 mM NaCl, 1% Triton X-100, and protease inhibitors. Lysates were spun at 12,000 rpm for 10 min, and the supernatant was incubated with anti-Flag M2 agarose beads (Sigma), or anti-myc or -HA antibody followed by IgG agarose beads (Pierce). Lysates and immunoprecipitates were subjected to SDS-PAGE, probed with HRP-conjugated secondary antibody and detected by enhanced chemiluminescence (Pierce).
CAD Associates with Orai1 in vivo and in vitro. Because cytosolic CAD is a potent activator of Orai1 channels and is not associated with the ER, we hypothesized that CAD binds to Orai1. To test this idea, we first expressed YFP-CAD with or without myc-Orai1 in HEK 293 cells and examined its intracellular localization. […] To provide additional evidence that CAD and Orai1 are part of the same protein complex we expressed Flag-tagged CAD and GFP-tagged Orai1 in HEK 293T cells and immunoprecipitated CAD with anti-Flag antibodies. GFP-myc-Orai1 was detected in the immunoprecipitates from cells co-expressing CAD and Orai1 but not from cells expressing CAD or Orai1 alone (FIG. 3B).
Thus, CAD and Orai1 form a protein complex in mammalian cells.

Orai1 [3] = biological target: T1, Orai1; assay: Yeast split ubiquitin interaction assay, CAD with Orai1; format: binding; details: NubG-Orai1 and CAD-Cub-LV in yeast
Protocol: Split-Ubiquitin Yeast Two Hybrid Assay. Screening was performed according to the manufacturer's instructions (Dualsystems Biotech). Transformed yeast were selected on media lacking Trp and Leu (-TL). Interaction was observed by cell growth on plates lacking Trp, Leu, and His (TLH) in the presence of 3-aminotriazole (3-AT). Protein interactions were also assessed by measuring lacZ activity using the chromogenic substrate X-gal (5-bromo-4-chloro-3-indolyl-β-galactopyranoside).
Split-Ubiquitin Yeast Two Hybrid Assay. To generate fusion proteins with the N-terminal half of ubiquitin (Nub), full-length or fragments of Orai1 were amplified by PCR and cloned into the pDL2-Nubx vector (Dualsystems Biotech). The Nub sequence in the pDL2-Nubx plasmid contains a point mutation (NubG) that abolishes the spontaneous association of Nub to the C-terminal half of ubiquitin (Cub). The CAD was subcloned into the pAMBV4 vector, which contains Cub fused to a chimeric transcription factor consisting of the DNA binding domain from LexA and the VP16 transactivation domain.
As a third test for association of CAD and Orai1 in vivo, and to map the interaction domains of Orai1 we introduced both proteins into a yeast split ubiquitin interaction system. […]

[4] = biological target: T2, Orai1-ΔN, Orai1-ΔC, Orai1-ΔN73 (Homo sapiens, UniProt Q96D31); assay: Whole-cell recording of ICRAC with truncated Orai1 and CAD; format: cell-based; details: cells expressing Orai1-ΔN73
T2 construct: expressed in transfected cells; host or cells: HEK 293
Protocol: as §1, §2
as §3, with “All data were leak-corrected using the current elicited in 20 mM Ca^2+ Ringer's+10 μM LaCl3 at the end of the each experiment. LaCl3 and 2-APB were added directly to parent solutions on the day of the experiment from 10 mM and 100 mM stocks in H2O and DMSO, respectively.” left out

T1 sequence (Q96D31 whole entry): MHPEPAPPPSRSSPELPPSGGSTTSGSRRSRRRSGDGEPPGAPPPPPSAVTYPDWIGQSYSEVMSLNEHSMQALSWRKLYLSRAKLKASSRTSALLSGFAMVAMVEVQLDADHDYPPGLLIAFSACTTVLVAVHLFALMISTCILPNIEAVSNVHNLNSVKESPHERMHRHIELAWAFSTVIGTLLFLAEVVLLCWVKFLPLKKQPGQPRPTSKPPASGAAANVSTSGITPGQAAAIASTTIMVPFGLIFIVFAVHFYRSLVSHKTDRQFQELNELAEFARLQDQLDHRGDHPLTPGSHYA
T2 sequence (Q96D31 74-301): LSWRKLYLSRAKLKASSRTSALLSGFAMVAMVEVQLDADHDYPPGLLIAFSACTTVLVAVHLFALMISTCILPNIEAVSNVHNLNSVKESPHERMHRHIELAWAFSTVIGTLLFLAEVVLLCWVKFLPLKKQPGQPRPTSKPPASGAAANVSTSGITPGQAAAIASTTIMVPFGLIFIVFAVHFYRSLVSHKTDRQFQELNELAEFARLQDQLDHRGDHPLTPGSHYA

CAD: 107-residue CRAC activation domain within the C-terminus of STIM1 (aa 342-448), SEQ ID NO:1
fast Ca2+-dependent inactivation of activated current (Orai1 [1]): lacked fast Ca^2+-dependent inactivation
co-immunoprecipitation with Orai1 (Orai1 [2]): co-immunoprecipitates with Orai1
interaction with Orai1 (growth on His selection, b-gal) (Orai1 [3]): interact with each other
constitutive ICRAC activation [4]: constitutively activated ICRAC
